Columns and labels:
Type in all cases: physicochemical
[1] = Solution phase stability of free base and hydrochloride salt (monomer vs dimer by HPLC), Example 15; settings: for % dimer / % monomer: solution in distilled water, 25±1° C.
Method: A 1.657 mM solution of Ac—PHSCN—NH2 in distilled water and a 1.653 mM solution of the hydrochloride salt of Ac—PHSCN—NH2 in distilled water were placed in a water bath at 25±1° C. Aliquots (800 μL) were periodically removed and the amount of dimerization was determined by HPLC.
(§1) All HPLC spectra were taken on a Waters HPLC that included Breeze software, a Waters 2487 Dual λ Absorbance Detector, a Waters 1525 Binary HPLC Pump, and a Waters 717 plus Autosampler. The column was a Phenomenex Synergi 4μ Hydro-RP 80A, 250×4.60 mm 4μ micron. The 40 minute gradient that was used is described in the table below.
Mobile Phase A: 0.1% TFA in acetonitrile Mobile Phase B: 0.1% TFA in water
(§2) The HPLC peak for Ac-Pro-His-Ser-Cys-Asn-NH2 monomer at approximately 9.2 minutes, and the peak for ATN-161 dimer at approximately 10.0 minutes were integrated in order to determine the percentage of these two species in each sample.

[2] = Solution phase stability of free base, methanesulfonic acid salt and nitric acid salt (HPLC), Example 17; settings: solution in distilled water, 25±0.5° C.
Method: as §1
A t=0 h timepoint was taken for each solution. The volumetric flasks were placed in a water bath at 25±0.5° C. and, periodically, a 0.7 mL aliquot was removed and the solution analyzed by HPLC as described in Example 15.

[3] = Solid phase stability of free base and hydrochloride salt (monomer vs dimer by HPLC), Example 16; settings: for % dimer / % monomer: solid stored at 25±1° C.
Method: as §1, §2
Samples of 0.8-1.2 mg of Ac—PHSCN—NH2 and Ac—PHSCN—NH2 hydrochloride salt were weighed into HPLC sample vials and stored at 25±1° C. A 0 h time point was taken. Samples were periodically removed and diluted with distilled water to give a 1 mg/mL solution. The amount of dimerization was determined by HPLC as described in Example 15. The results are illustrated graphically in FIG. 3.

[4] = Solid phase stability of free base, methanesulfonic acid salt and nitric acid salt (HPLC), Example 18; settings: solid stored at 25±0.5° C.
Method: as §1

Substance: Ac-Pro-His-Ser-Cys-Asn-NH2 (Ac-PHSCN-NH2) [Free Base]
- conversion to other products (e.g., the dimer) ([1]; in solution after more than 500 hours at room temperature): completely converted to other products
- % dimer ([1]; 0 h): 6.7%
- % monomer ([1]; 0 h): 93.3%
- % dimer ([1]; 69 h): 17.4%
- % monomer ([1]; 69 h): 82.6%
- % dimer ([1]; 140 h): 23.5%
- % monomer ([1]; 140 h): 76.5%
- % dimer ([1]; 188 h): 28.1%
- % monomer ([1]; 188 h): 71.9%
- % dimer ([1]; 236 h): 34.3%
- % monomer ([1]; 236 h): 65.7%
- % dimer ([1]; 309 h): 38.9%
- % monomer ([1]; 309 h): 61.1%
- % dimer ([1]; 357 h): 43.3%
- % monomer ([1]; 357 h): 56.7%
- % dimer ([1]; 404 h): 51.4%
- % monomer ([1]; 404 h): 48.6%
- % dimer ([1]; 477 h): 68.7%
- % monomer ([1]; 477 h): 31.3%
- % dimer ([1]; 525 h): 83.2%
- % monomer ([1]; 525 h): 16.8%
- % dimer ([1]; 622 h): 100%
- % monomer ([1]; 622 h): 0%
- % dimer ([2]; 0 h): 7.8%
- % monomer ([2]; 0 h): 92.2%
- % dimer ([2]; 69 h): 26.1%
- % monomer ([2]; 69 h): 73.9%
- % dimer ([2]; 140 h): 30.7%
- % monomer ([2]; 140 h): 69.3%
- % dimer ([2]; 213 h): 35.0%
- % monomer ([2]; 213 h): 65.0%
- % dimer ([2]; 332 h): 42.5%
- % monomer ([2]; 332 h): 57.5%
- % dimer ([2]; 408 h): 46.4%
- % monomer ([2]; 408 h): 53.6%
- % dimer ([2]; 479 h): 51.0%
- % monomer ([2]; 479 h): 49.0%
- % dimer ([2]; 549 h): 56.2%
- % monomer ([2]; 549 h): 43.8%
- % dimer ([2]; 645 h): 68.9%
- % monomer ([2]; 645 h): 31.1%
- % dimer ([2]; 720 h): 82.2%
- % monomer ([2]; 720 h): 17.8%
- % dimer ([2]; 836 h): 98.5%
- % monomer ([2]; 836 h): 1.5%
- % pure in the solid phase ([3]; solid phase, after more than 800 hours at room temperature, i.e., 23-25° C.): greater than 82%
- % dimer ([3]; 0 h): 8.5%
- % monomer ([3]; 0 h): 91.5%
- % dimer ([3]; 73 h): 10.0%
- % monomer ([3]; 73 h): 90.0%
- % dimer ([3]; 143 h): 11.5%
- % monomer ([3]; 143 h): 88.5%
- % dimer ([3]; 243 h): 12.7%
- % monomer ([3]; 243 h): 87.3%
- % dimer ([3]; 312 h): 14.0%
- % monomer ([3]; 312 h): 86.0%
- % dimer ([3]; 410 h): 13.8%
- % monomer ([3]; 410 h): 86.2%
- % dimer ([3]; 576 h): 15.2%
- % monomer ([3]; 576 h): 84.8%
- % dimer ([3]; 677 h): 16.1%
- % monomer ([3]; 677 h): 83.9%
- % dimer ([3]; 818 h): 17.9%
- % monomer ([3]; 818 h): 82.1%
- % dimer ([4]; 0 h): 6.1%
- % monomer ([4]; 0 h): 93.9%
- % dimer ([4]; 161 h): 11.6%
- % monomer ([4]; 161 h): 88.4%
- % dimer ([4]; 335 h): 12.5%
- % monomer ([4]; 335 h): 87.5%
- % dimer ([4]; 498 h): 14.6%
- % monomer ([4]; 498 h): 85.4%
- % dimer ([4]; 670 h): 14.8%
- % monomer ([4]; 670 h): 85.2%
- % dimer ([4]; 832 h): 15.7%
- % monomer ([4]; 832 h): 84.3%
- % dimer ([4]; 1003 h): 17.0%
- % monomer ([4]; 1003 h): 83.0%
- % dimer ([4]; 1170 h): 16.5%
- % monomer ([4]; 1170 h): 83.5%
- % dimer ([4]; 1363 h): 17.6%
- % monomer ([4]; 1363 h): 82.4%
- % dimer ([4]; 1506 h): 18.6%
- % monomer ([4]; 1506 h): 81.4%
- % dimer ([4]; 1698 h): 19.2%
- % monomer ([4]; 1698 h): 80.8%
